The record followed here is US9708383 (Novo Nordisk, dated 2017).

*1 amine or outer side, *2 acyl side, *3 side chain or, on linkers, in order; H or OH if unused. Where no end group is shown, it is not given here. Side-chain parts run from the residue outwards. [ ]: non-standard residue; d: D form. The star is where a group is joined. Decanoyl(10-(4-HOOC-PhO)) = O=C(O)c1ccc(OCCCCCCCCCC(=O)*)cc1; d(γGlu) = O=C(O)[C@@H](CCC(=O)[*:2])N[*:1]; C16 diacid = O=C(O)CCCCCCCCCCCCCCC(=O)*; γGlu = O=C(O)[C@H](CCC(=O)[*:2])N[*:1]; 13‑carboxytridecanoyl = C14 diacid; AEEA = NCCOCCOCC(=O)O; Aib = CC(C)(N)C(=O)O

Test [1] deals with T1, human GLP-1 receptor (human, UniProt P43220 24-463).
T1 construct: whole, on cells; Used as purified membranes of the transfected hamster cells, not whole cells; also called hGLP-1
In words: SPA, displacement of 125I-GLP-1(7-36)NH2, 0.005% HSA. Background: Loss of bound radioactivity is the signal in a displacement assay; it reports binding, not function.

Test [2] deals with T1, human GLP-1 receptor. The experiment in a line: SPA, 2.0% vs 0.005% HSA.

As usually defined, the IC50 is the concentration at which inhibition is half-maximal. Read a high IC50 as lower potency. In the test with human GLP-1 receptor [1], H[Aib]EGTFTSDVSK([AEEA-AEEA-d(γGlu)-γGlu-13‑carboxytridecanoyl])YLEEQAAK([AEEA-AEEA-d(γGlu)-γGlu-13‑carboxytridecanoyl])EFIAWLVQGRG [GLP-1 derivative of Example 105: [Aib8,Lys18,Glu22,Gln34]-GLP-1-(7-37)-peptide] showed an IC50 below 1000 nM. Further, the “ratio IC50 high HSA/IC50 low HSA” value with human GLP-1 receptor [2] was above 1.

H[Aib]EGTFTSDVSK([AEEA-AEEA-AEEA-AEEA-γGlu-13‑carboxytridecanoyl])YLEEQAVREFIAK([AEEA-AEEA-AEEA-AEEA-γGlu-13‑carboxytridecanoyl])LVRGRG [GLP-1 derivative of Example 130: [Aib8,Lys18,Glu22,Val25,Arg26,Lys31,Arg34]-GLP-1-(7-37)-peptide] yielded an IC50 with human GLP-1 receptor [1] below 1000 nM. Moreover, the “ratio IC50 high HSA/IC50 low HSA” value with human GLP-1 receptor [2] was above 1.

Molecule H[Aib]EGTFTSDVSK([AEEA-γGlu-AEEA-13‑carboxytridecanoyl])YLEEQAVREFIAK([AEEA-γGlu-AEEA-13‑carboxytridecanoyl])LVRGRG [GLP-1 derivative of Example 145: [Aib8,Lys18,Glu22,Val25,Arg26,Lys31,Arg34]-GLP-1-(7-37)-peptide] gave a 50% inhibitory concentration (IC50) with human GLP-1 receptor [1] below 1000 nM. Further, the “ratio IC50 high HSA/IC50 low HSA” value in the test with human GLP-1 receptor [2] was above 1.

B1: GLP-1 derivative of Example 135: [Aib8,Lys18,Glu22,Val25,Arg26,Lys31,Arg34]-GLP-1-(7-37)-peptide amide (peptide)
peptide: H[Aib]EGTFTSDVSK([AEEA-AEEA-AEEA-AEEA-γGlu-C16 diacid])YLEEQAVREFIAK([AEEA-AEEA-AEEA-AEEA-γGlu-C16 diacid])LVRGRG-NH2
modifications: N-terminus assumed
SMILES: CC[C@H](C)[C@H](NC(=O)[C@H](Cc1ccccc1)NC(=O)[C@H](CCC(=O)O)NC(=O)[C@H](CCCNC(=N)N)NC(=O)[C@@H](NC(=O)[C@H](C)NC(=O)[C@H](CCC(N)=O)NC(=O)[C@H](CCC(=O)O)NC(=O)[C@H](CCC(=O)O)NC(=O)[C@H](CC(C)C)NC(=O)[C@H](Cc1ccc(O)cc1)NC(=O)[C@H](CCCCNC(=O)COCCOCCNC(=O)COCCOCCNC(=O)COCCOCCNC(=O)COCCOCCNC(=O)CC[C@H](NC(=O)CCCCCCCCCCCCCCC(=O)O)C(=O)O)NC(=O)[C@H](CO)NC(=O)[C@@H](NC(=O)[C@H](CC(=O)O)NC(=O)[C@H](CO)NC(=O)[C@@H](NC(=O)[C@H](Cc1ccccc1)NC(=O)[C@@H](NC(=O)CNC(=O)[C@H](CCC(=O)O)NC(=O)C(C)(C)NC(=O)[C@@H](N)Cc1c[nH]cn1)[C@@H](C)O)[C@@H](C)O)C(C)C)C(C)C)C(=O)N[C@@H](C)C(=O)N[C@@H](CCCCNC(=O)COCCOCCNC(=O)COCCOCCNC(=O)COCCOCCNC(=O)COCCOCCNC(=O)CC[C@H](NC(=O)CCCCCCCCCCCCCCC(=O)O)C(=O)O)C(=O)N[C@@H](CC(C)C)C(=O)N[C@H](C(=O)N[C@@H](CCCNC(=N)N)C(=O)NCC(=O)N[C@@H](CCCNC(=N)N)C(=O)NCC(N)=O)C(C)C
For B1, the IC50 with human GLP-1 receptor [1] was below 1000 nM. In addition, in the test with human GLP-1 receptor [2], the “ratio IC50 high HSA/IC50 low HSA” value is above 1.

In the test with human GLP-1 receptor [1], H[Aib]EGTFTSDVSK([AEEA-AEEA-γGlu-γGlu-C16 diacid])YLEEQAVREFIAK([AEEA-AEEA-γGlu-γGlu-C16 diacid])LVRGRG [GLP-1 derivative of Example 134: [Aib8,Lys18,Glu22,Val25,Arg26,Lys31,Arg34]-GLP-1-(7-37)-peptide] displayed a 50% inhibitory concentration (IC50) below 1000 nM. Moreover, the “ratio IC50 high HSA/IC50 low HSA” value in the test with human GLP-1 receptor [2] was above 1.

Regarding H[Aib]EGTFTSDVSKYLEEQAVREFIAKLVRGRG (not fully specified (residues 12, 25)) [GLP-1 derivative of Example 137: [Aib8,Lys18,Glu22,Val25,Arg26,Lys31,Arg34]-GLP-1-(7-37)-peptide], the half-maximal inhibitory concentration (IC50) in the test with human GLP-1 receptor [1] is below 1000 nM. Also, the “ratio IC50 high HSA/IC50 low HSA” value in the test with human GLP-1 receptor [2] was above 1.

In the test with human GLP-1 receptor [1], H[Aib]EGTFTSDVSK([AEEA-AEEA-AEEA-AEEA-AEEA-AEEA-γGlu-13‑carboxytridecanoyl])YLEEQAVREFIAK([AEEA-AEEA-AEEA-AEEA-AEEA-AEEA-γGlu-13‑carboxytridecanoyl])LVRGRG [GLP-1 derivative of Example 144: [Aib8,Lys18,Glu22,Val25,Arg26,Lys31,Arg34]-GLP-1-(7-37)-peptide] came in with an IC50 below 1000 nM. Moreover, in the test with human GLP-1 receptor [2], the “ratio IC50 high HSA/IC50 low HSA” value was above 1.

Turning to H[Aib]EGTFTSDVSK([AEEA-AEEA-AEEA-AEEA-AEEA-AEEA-γGlu-13‑carboxytridecanoyl])YLEEQAVREFIAK([AEEA-AEEA-AEEA-AEEA-AEEA-AEEA-γGlu-13‑carboxytridecanoyl])LVRGRG [GLP-1 derivative of Example 131: [Aib8,Lys18,Glu22,Val25,Arg26,Lys31,Arg34]-GLP-1-(7-37)-peptide], the 50% inhibitory concentration (IC50) with human GLP-1 receptor [1] is below 1000 nM. Further, in the test with human GLP-1 receptor [2], the “ratio IC50 high HSA/IC50 low HSA” value was above 1.

Regarding H[Aib]EGTFTSDVSK([AEEA-AEEA-γGlu-13‑carboxytridecanoyl])YLEGQAAK([AEEA-AEEA-γGlu-13‑carboxytridecanoyl])EFIAWLVQGRG [GLP-1 derivative of Example 141: [Aib8,Lys18,Gln34]-GLP-1-(7-37)-peptide], the IC50 in the test with human GLP-1 receptor [1] is below 1000 nM. Also, the “ratio IC50 high HSA/IC50 low HSA” value with human GLP-1 receptor [2] was above 1.

As to H[Aib]EGTFTSDVSK([AEEA-AEEA-γGlu-Decanoyl(10-(4-HOOC-PhO))])YLEGQAAK([AEEA-AEEA-γGlu-Decanoyl(10-(4-HOOC-PhO))])EFIAWLVHGRG [GLP-1 derivative of Example 142: [Aib8,Lys18,His34]-GLP-1-(7-37)-peptide], in the test with human GLP-1 receptor [1], the IC50 is below 1000 nM. Further, in the test with human GLP-1 receptor [2], the “ratio IC50 high HSA/IC50 low HSA” value was above 1.

For H[Aib]EGTFTSDVSK([AEEA-γGlu-AEEA-C16 diacid])YLEEQAVREFIAK([AEEA-γGlu-AEEA-C16 diacid])LVRGRG [GLP-1 derivative of Example 146: [Aib8,Lys18,Glu22,Val25,Arg26,Lys31,Arg34]-GLP-1-(7-37)-peptide], the IC50 with human GLP-1 receptor [1] was below 1000 nM. In addition, in the test with human GLP-1 receptor [2], the “ratio IC50 high HSA/IC50 low HSA” value was above 1.

H[Aib]EGTLTSDVSK([AEEA-AEEA-γGlu-Decanoyl(10-(4-HOOC-PhO))])YLEGQAAK([AEEA-AEEA-γGlu-Decanoyl(10-(4-HOOC-PhO))])EFIAWLVQGRG [GLP-1 derivative of Example 139: [Aib8,Leu12,Lys18,Gln34]-GLP-1-(7-37)-peptide] had an IC50 with human GLP-1 receptor [1] below 1000 nM. The “ratio IC50 high HSA/IC50 low HSA” value with human GLP-1 receptor [2] was above 1.
